Positions of bridges follow the written chain, without caps; N, C: chain ends. Non-standard residues stand in square brackets, D forms with d. No end group written: not given here. Pen = CC(C)(S)[C@H](N)C(=O)O; βAla = NCCC(=O)O
B1: Peptide No. 105 (peptide)
peptide: QRFDTGHFGXLYPKNGP
modifications: D-Ala10; lactam bridge Asp4-Lys14 side chains; C-terminal amide
B2: Peptide No. 211 (peptide)
peptide: FVTGHFG[dP]WYPA-NH2
modifications: N-terminus assumed
SMILES: CC(C)[C@H](NC(=O)[C@@H](N)Cc1ccccc1)C(=O)N[C@H](C(=O)NCC(=O)N[C@@H](Cc1c[nH]cn1)C(=O)N[C@@H](Cc1ccccc1)C(=O)NCC(=O)N1CCC[C@@H]1C(=O)N[C@@H](Cc1c[nH]c2ccccc12)C(=O)N[C@@H](Cc1ccc(O)cc1)C(=O)N1CCC[C@H]1C(=O)N[C@@H](C)C(N)=O)[C@@H](C)O
B3: Peptide No. 266 (peptide)
peptide: RFXTGAFGXXYPC
modifications: Pen3; Sar9; NMeLeu10; disulfide; C-terminal amide
B4: Peptide No. 295 (peptide)
peptide: QRFXTGHFGXLYPXNGP
modifications: Pen4; D-Pro10; Pen14; disulfide; C-terminal amide
B5: Peptide No. 142 (peptide)
peptide: RFXTGHFGXLYPC
modifications: Pen3; D-Pro9; disulfide; C-terminal amide
B6: Peptide No. 111 (peptide)
peptide: QRFXTGHFXGLYPCNGP
modifications: Pen4; Sar9; disulfide; C-terminal amide
B7: Peptide No. 203 (peptide)
peptide: QRFXTGHFXPLYPCNGP
modifications: Pen4; D-Phe9; disulfide; C-terminal amide
B8: Peptide No. 279 (peptide)
peptide: RFXTGHFGXXYPC
modifications: Pen3; Sar9; NMeLeu10; intrachain disulfide; N-termini joined by Bis-dPEG6 diacid linker; C-terminal amide
B9: Peptide No. 49 (peptide)
peptide: QRFXTGHFXGLYPCNGP
modifications: Pen4; D-Arg9; disulfide; C-terminal amide
B10: Peptide No. 167 (peptide)
peptide: QRFVTGHFG[dP]LYPVNGP-NH2
modifications: N-terminus assumed
SMILES: CC(C)C[C@H](NC(=O)[C@H]1CCCN1C(=O)CNC(=O)[C@H](Cc1ccccc1)NC(=O)[C@H](Cc1c[nH]cn1)NC(=O)CNC(=O)[C@@H](NC(=O)[C@@H](NC(=O)[C@H](Cc1ccccc1)NC(=O)[C@H](CCCNC(=N)N)NC(=O)[C@@H](N)CCC(N)=O)C(C)C)[C@@H](C)O)C(=O)N[C@@H](Cc1ccc(O)cc1)C(=O)N1CCC[C@H]1C(=O)N[C@H](C(=O)N[C@@H](CC(N)=O)C(=O)NCC(=O)N1CCC[C@H]1C(N)=O)C(C)C
B11: Peptide No. 171 (peptide)
peptide: QRFVTGHFGXLYPYNGP
modifications: D-Pro10; unbridged; C-terminal amide
B12: Peptide No. 169 (peptide)
peptide: QRFVTGHFG[dP]LYPINGP-NH2
modifications: N-terminus assumed
SMILES: CC[C@H](C)[C@H](NC(=O)[C@@H]1CCCN1C(=O)[C@H](Cc1ccc(O)cc1)NC(=O)[C@H](CC(C)C)NC(=O)[C@H]1CCCN1C(=O)CNC(=O)[C@H](Cc1ccccc1)NC(=O)[C@H](Cc1c[nH]cn1)NC(=O)CNC(=O)[C@@H](NC(=O)[C@@H](NC(=O)[C@H](Cc1ccccc1)NC(=O)[C@H](CCCNC(=N)N)NC(=O)[C@@H](N)CCC(N)=O)C(C)C)[C@@H](C)O)C(=O)N[C@@H](CC(N)=O)C(=O)NCC(=O)N1CCC[C@H]1C(N)=O
B13: Peptide No. 172 (peptide)
peptide: QRFVTGHFGXLYPWNGP
modifications: D-Pro10; unbridged; C-terminal amide
B14: Peptide No. 176 (peptide)
peptide: QRFVTGHFG[dP]YYPANGP-NH2
modifications: N-terminus assumed
SMILES: CC(C)[C@H](NC(=O)[C@H](Cc1ccccc1)NC(=O)[C@H](CCCNC(=N)N)NC(=O)[C@@H](N)CCC(N)=O)C(=O)N[C@H](C(=O)NCC(=O)N[C@@H](Cc1c[nH]cn1)C(=O)N[C@@H](Cc1ccccc1)C(=O)NCC(=O)N1CCC[C@@H]1C(=O)N[C@@H](Cc1ccc(O)cc1)C(=O)N[C@@H](Cc1ccc(O)cc1)C(=O)N1CCC[C@H]1C(=O)N[C@@H](C)C(=O)N[C@@H](CC(N)=O)C(=O)NCC(=O)N1CCC[C@H]1C(N)=O)[C@@H](C)O
B15: Peptide No. 174 (peptide)
peptide: QRFVTGHFG[dP]IYPANGP-NH2
modifications: N-terminus assumed
SMILES: CC[C@H](C)[C@H](NC(=O)[C@H]1CCCN1C(=O)CNC(=O)[C@H](Cc1ccccc1)NC(=O)[C@H](Cc1c[nH]cn1)NC(=O)CNC(=O)[C@@H](NC(=O)[C@@H](NC(=O)[C@H](Cc1ccccc1)NC(=O)[C@H](CCCNC(=N)N)NC(=O)[C@@H](N)CCC(N)=O)C(C)C)[C@@H](C)O)C(=O)N[C@@H](Cc1ccc(O)cc1)C(=O)N1CCC[C@H]1C(=O)N[C@@H](C)C(=O)N[C@@H](CC(N)=O)C(=O)NCC(=O)N1CCC[C@H]1C(N)=O
B16: Peptide No. 175 (peptide)
peptide: QRFVTGHFG[dP]FYPANGP-NH2
modifications: N-terminus assumed
SMILES: CC(C)[C@H](NC(=O)[C@H](Cc1ccccc1)NC(=O)[C@H](CCCNC(=N)N)NC(=O)[C@@H](N)CCC(N)=O)C(=O)N[C@H](C(=O)NCC(=O)N[C@@H](Cc1c[nH]cn1)C(=O)N[C@@H](Cc1ccccc1)C(=O)NCC(=O)N1CCC[C@@H]1C(=O)N[C@@H](Cc1ccccc1)C(=O)N[C@@H](Cc1ccc(O)cc1)C(=O)N1CCC[C@H]1C(=O)N[C@@H](C)C(=O)N[C@@H](CC(N)=O)C(=O)NCC(=O)N1CCC[C@H]1C(N)=O)[C@@H](C)O
B17: Peptide No. 287 (peptide)
peptide: RFXTGHFGXXYPCG
modifications: Pen3; Sar9; NMeLeu10; intrachain disulfide; C-termini joined through a branching Lys
notes: dimer made as Peptide No. 280
B18: Peptide No. 286 (peptide)
peptide: RFXTGHFGXXYPC
modifications: Pen3; Sar9; NMeLeu10; intrachain disulfide; N-termini joined by Glu (from Boc-Glu(OH)-OH) with a free amine; C-terminal amide
B19: Peptide No. 288 (peptide)
peptide: RFXTGHFGXXYPCGG
modifications: Pen3; Sar9; NMeLeu10; intrachain disulfide; C-termini joined through a branching Lys
notes: dimer made as Peptide No. 280
B20: Peptide No. 25 (peptide)
peptide: QRFCGHF[βAla]LYPCNGP-NH2
modifications: disulfide 4-12; N-terminus assumed
SMILES: CC(C)C[C@@H]1NC(=O)CCNC(=O)[C@H](Cc2ccccc2)NC(=O)[C@H](Cc2c[nH]cn2)NC(=O)CNC(=O)[C@@H](NC(=O)[C@H](Cc2ccccc2)NC(=O)[C@H](CCCNC(=N)N)NC(=O)[C@@H](N)CCC(N)=O)CSSC[C@@H](C(=O)N[C@@H](CC(N)=O)C(=O)NCC(=O)N2CCC[C@H]2C(N)=O)NC(=O)[C@@H]2CCCN2C(=O)[C@H](Cc2ccc(O)cc2)NC1=O
notes: printed QRFCGHF-betaAla-LYPCNGP (no Thr)
B21: Peptide No. 151 (peptide)
peptide: QRF[Pen]TGHF[dF][dA]LYPCNGP-NH2
modifications: disulfide 4-14; N-terminus assumed
SMILES: CC(C)C[C@@H]1NC(=O)[C@@H](C)NC(=O)[C@@H](Cc2ccccc2)NC(=O)[C@H](Cc2ccccc2)NC(=O)[C@H](Cc2c[nH]cn2)NC(=O)CNC(=O)[C@H]([C@@H](C)O)NC(=O)[C@@H](NC(=O)[C@H](Cc2ccccc2)NC(=O)[C@H](CCCNC(=N)N)NC(=O)[C@@H](N)CCC(N)=O)C(C)(C)SSC[C@@H](C(=O)N[C@@H](CC(N)=O)C(=O)NCC(=O)N2CCC[C@H]2C(N)=O)NC(=O)[C@@H]2CCCN2C(=O)[C@H](Cc2ccc(O)cc2)NC1=O
B22: Peptide No. 289 (peptide)
peptide: RFXTGHFGXXYPC
modifications: Pen3; Sar9; NMeLeu10; intrachain disulfide; N-termini joined by Asp; linker amine acylated with PEG 30 kDa succinimidyl ester; C-terminal amide
notes: also called pegylated analog of Peptide No. 285
B23: Peptide No. 53 (peptide)
peptide: QRFXTGHFXGLYPCNGP
modifications: Pen4; D-Tyr9; disulfide; C-terminal amide
B24: Peptide No. 96 (peptide)
peptide: QRXXTGHFGGLYPCNGP
modifications: D-Phe3; Pen4; disulfide; C-terminal amide
B25: Peptide No. 30 (peptide)
peptide: QRFCTGHFGGLYPXNGP
modifications: D-Cys14; disulfide; C-terminal amide
B26: Peptide No. 26 (peptide)
peptide: QRFCTGHFGGLFPCNGP
modifications: disulfide; C-terminal amide
B27: Peptide No. 280 (peptide)
peptide: RFXTGHFGXXYPC
modifications: sequence analogous to Peptide No. 235; C-termini joined through a branching Lys (Fmoc-Lys(Fmoc)-OH); intrachain disulfide
notes: dimer

These binders were tested against T1, soluble human FcRn (shFcRn) (human, UniProt P55899 24-297; P61769 21-119, biotinylated with Sulfo-NHS-LC-Biotin in the ELISA; amine-coupled to a CM5 chip in SPR) (assay: SPR, pH 6).
T1 construct: also called biotinylated shFcRn
T1 sequence (P55899 24-297 limits assumed, chain 1 of 2): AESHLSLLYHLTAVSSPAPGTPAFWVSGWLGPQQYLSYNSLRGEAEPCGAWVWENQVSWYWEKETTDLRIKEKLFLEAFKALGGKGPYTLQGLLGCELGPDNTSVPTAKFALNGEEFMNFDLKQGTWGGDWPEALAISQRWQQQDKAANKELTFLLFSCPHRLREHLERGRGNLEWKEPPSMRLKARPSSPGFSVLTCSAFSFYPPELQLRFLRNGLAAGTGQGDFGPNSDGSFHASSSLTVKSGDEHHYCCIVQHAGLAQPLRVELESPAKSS
T1 sequence (P61769 21-119 limits assumed, chain 2 of 2): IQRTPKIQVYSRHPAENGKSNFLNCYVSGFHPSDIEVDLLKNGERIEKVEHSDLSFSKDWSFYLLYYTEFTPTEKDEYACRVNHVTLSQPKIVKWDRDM
Method: The following steps were performed to cross-link soluble human or cynomolgus FcRn to the dextran surface of a CM5 sensor chip (Biacore AB, Uppsala, Sweden) by an amine coupling reaction involving 1-ethyl-(3-dimethylaminopropyl)-carbodiimide hydrochloride (EDC) (Biacore AB, Uppsala, Sweden) and N-hydroxysuccinimide (NHS) (Biacore AB, Uppsala, Sweden) as recommended by Biacore (BIAapplications Handbook, version AB, section 4.2, Biacore AB, Uppsala, Sweden). The FcRn protein was diluted in 50 mM sodium acetate, pH 4.5 (Biacore AB, Uppsala, Sweden) to a concentration of 10 to 30 µg/ml and used to coat one flow cell on the sensor chip. Residual sites on the FcRn flow cell were blocked with 1 M ethanolamine hydrochloride pH 8.5 (Biacore AB, Uppsala, Sweden). A control flow cell was blocked with ethanolamine for reference subtraction. For analysis of the monomeric peptides, FcRn was coated to a final density of 4000-5000 response units (RU). For analysis of the peptide dimers, FcRn was coated to a density of 2000-2500 RU. All SPR measurements were performed using a BIACORE 3000 Instrument (Biacore AB Uppsala, Sweden). For measurements done at either pH 6 or pH 7.4, experiments were performed in 50 mM phosphate, 100 mM sodium chloride, 0.01% surfactant P20 (Biacore AB, Uppsala, Sweden).
A. Representative Procedure for the Determination of Binding Constant of Monomeric Peptides Ten 2-fold dilutions of the peptide were injected over the FcRn-CM5 chip at a rate of 20 µl/min for 2 min. The peptide was dissociated from the chip for 2.5 minutes with buffer. Any remaining peptide was removed from the chip with a 30 second injection of HBS-P buffer (Biacore AB, Uppsala, Sweden) at a rate of 30 µl/min. Sensorgrams were generated and analyzed using BiaEval software version 3.1 (Biacore AB, Uppsala, Sweden). The equilibrium RU observed for each injection was plotted against concentration. The equilibrium K_D values were derived by analysis of the plots using the steady state affinity model included in the BiaEval software.
For B1, the Kd was 2.1 µM.
B2 showed a Kd of 8 µM.
Work on B3 yielded a Kd of 9.9 µM.
Work on B4 yielded a Kd of 0.28 µM.
B5 gave a Kd of 0.14 µM.
B6 showed a Kd of 2 µM.
Work on B7 yielded a Kd of 3.8 µM.

These binders were tested against T1, soluble human FcRn (shFcRn) (assay: competition ELISA vs human IgG).
Method: The wells were coated with 100 μl/well of 1 μg/ml biotinylated-shFcRn in Buffer A. The plate was sealed and incubated at 37° C. for 2 hours. Afterwards, the plate was washed with 200 μl/well of Buffer B (Buffer B: 100 mM MES pH 6, 150 mM NaCl, 0.5% BSA IgG-free (Jackson ImmunoResearch, West Grove, Pa.), 0.05% Tween-20). […] To allow for mixing, the plate was rocked for 2 minutes, sealed and incubated at 37° C. for 2 hours. […] The plate was covered, incubated for 30 minutes at room temperature and washed 4 times with 200 μl/well of ice-cold buffer B. SureBlue TMB substrate solution (100 μl/well, KPL, Gaithersburg, Md.) was added and the plate was allowed to incubate at room temperature until color developed, which took 5 to 10 minutes. Once color developed, 100 μl/well of TMB stop solution (KPL, Gaithersburg, Md.) was added and the absorbance was measured at 450 nm.
For B8, the IC50 was 0.007 µM.
Binder B9 has an IC50 of 4.1 µM.
Work on B10 yielded an IC50 of 93 µM.
B11 showed an IC50 of 150 µM.
In the case of B12, the IC50 is reported as 72 µM.
B13 showed an IC50 of 150 µM.
B14 showed an IC50 of 230 µM.
Work on B15 yielded an IC50 of 94 µM.
B16 showed an IC50 of 200 µM.
B17 gave an IC50 of 0.02 µM.
For B18, the IC50 was 0.0056 µM.
In the case of B19, the IC50 is reported as 0.016 µM.
With B20 the IC50 was > 125 µM.
Work on B21 yielded an IC50 of 4.3 µM.
With B4 the IC50 was 1.6 µM.
With B22 the IC50 was 0.018 µM.
B23 was tested, and the IC50 was 3.2 µM.
With B24 the IC50 was 11.4 µM.
For B25, the IC50 was 125 µM.
With B26 the IC50 was > 125 µM.
With B27 the IC50 was 0.025 µM.

Source: patent US8906844B2 (SYNTONIX PHARMACEUTICALS, dated 2014)
